From patent US6500669, “Programmable genotoxic agents and uses therefor” (Massachusetts Institute of Technology)

Target: streptavidin (UniProt P22629 P22629:25-183)
Test: EMSA; half-maximum binding (C1/2) via biotin on the adduct; reversed by free d-biotin; 100 mM NaCl, MgCl2, pH 7.4, room temperature
Conditions: tags: Pierce; chain copies: 4; label: 5' 32P
Procedure: Gel Mobility Shift Assay. […] A constant amount of the lesioned U-17 (3200 cpm, ~0.1 nM) was used in each incubation, with the concentration of streptavidin varied from 0 to 50 nM. Free d-biotin (0.4 mM) was added into the incubation(s) where indicated. After electrophoresis, the gel was dried and exposed to x-ray film with an intensifying screen. The dried gel was also exposed to a PhorphorImager screen and the data were analyzed with IMAGEQUANT software (Molecular Dynamics, Sunnyvale, Calif.).

streptavidin, sequence (P22629 25-183, one chain of several): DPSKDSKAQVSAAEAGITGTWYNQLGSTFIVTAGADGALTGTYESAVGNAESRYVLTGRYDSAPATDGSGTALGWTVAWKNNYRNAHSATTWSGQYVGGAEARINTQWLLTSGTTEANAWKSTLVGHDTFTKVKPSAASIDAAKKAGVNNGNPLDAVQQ

B1: TMP-biotin monoadducted U-17 (dsDNA)
DNA 1: CGGCCGTACGUGCGCCG
DNA 2: CGGCGCACGTACGGCCG
modifications: TMP-biotin (psoralen-biotin) monoadduct at T7 of the central TA; deoxyuridine at position 11
- Kd: ~1.5 nM
